Measurements as given in patent US20140255415A1 (Novartis, published 2014).

Tests used:
[1] = target: Unrelated Fc; experiment: ELISA, Fc fusion captured via goat anti-human IgG Fc, Fab detected with AP-conjugated secondary and AttoPhos
[2] = target: T1, cynomolgus monkey LINGO-1 expressed on CHO-K1 cells (CHO-K1-cmLINGO-1) (cynomolgus monkey, UniProt Q9N008 34-614); experiment: apparent KD, FACS saturation binding on CHO-K1-cmLINGO-1 cells, Fab format
T1 construct: range 34-614; also called Cynomolgus LINGO-1; not shown: 2 amino acid residue linker
T1 sequence (looked up): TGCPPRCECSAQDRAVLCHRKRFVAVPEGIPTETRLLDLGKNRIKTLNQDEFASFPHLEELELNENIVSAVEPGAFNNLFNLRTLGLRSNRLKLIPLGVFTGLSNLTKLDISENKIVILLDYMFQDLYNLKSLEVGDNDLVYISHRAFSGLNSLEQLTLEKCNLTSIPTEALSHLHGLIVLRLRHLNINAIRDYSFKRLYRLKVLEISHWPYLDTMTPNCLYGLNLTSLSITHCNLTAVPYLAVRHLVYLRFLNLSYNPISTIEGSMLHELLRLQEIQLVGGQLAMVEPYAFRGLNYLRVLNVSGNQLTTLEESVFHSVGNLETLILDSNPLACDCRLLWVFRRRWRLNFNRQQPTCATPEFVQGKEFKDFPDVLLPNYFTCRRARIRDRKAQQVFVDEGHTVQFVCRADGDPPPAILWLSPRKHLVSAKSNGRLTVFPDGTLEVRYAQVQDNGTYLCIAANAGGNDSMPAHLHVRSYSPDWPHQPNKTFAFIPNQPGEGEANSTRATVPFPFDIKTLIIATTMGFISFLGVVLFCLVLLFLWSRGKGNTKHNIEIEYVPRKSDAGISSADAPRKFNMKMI
Procedure: Cell based affinity of anti-LINGO-1 specific antibodies is determined by FACS saturation binding experiments. […] Otherwise the staining procedure is done identical to the FACS staining procedure described above.
In detail, CHO-K1-hLINGO-1, CHO-K1-cmLINGO-1 or CHO-K1-rLINGO-1 are detached from culture flasks by versene, washed with FACS buffer and resuspended in FACS buffer. Purified anti-LINGO-1 Fabs are serially diluted in FACS buffer and spread into round bottom 96-well microtiter plates (NUNC™, Wiesbaden, Germany). For each concentration, duplicate wells are incubated with 1.25×10⁴ cells for 30-60 min on ice in a total volume of 100 μl.

[3] = target: human LINGO-1 expressed on CHO-K1 cells (CHO-K1-hLINGO-1) (human) (UniProt Q96FE5); experiment: apparent KD, FACS saturation binding on CHO-K1-hLINGO-1 cells, Fab format
[4] = target: T2, human LINGO-1-Fc fusion protein (natleader-hsLINGO-1-Fc) (human, UniProt Q96FE5 42-556); experiment: ELISA, Fc fusion captured via goat anti-human IgG Fc, Fab detected with AP-conjugated secondary and AttoPhos
T2 construct: also called human recombinant LINGO-1-Fc; captured human LINGO-1-Fc; not shown: protein lette
T2 sequence: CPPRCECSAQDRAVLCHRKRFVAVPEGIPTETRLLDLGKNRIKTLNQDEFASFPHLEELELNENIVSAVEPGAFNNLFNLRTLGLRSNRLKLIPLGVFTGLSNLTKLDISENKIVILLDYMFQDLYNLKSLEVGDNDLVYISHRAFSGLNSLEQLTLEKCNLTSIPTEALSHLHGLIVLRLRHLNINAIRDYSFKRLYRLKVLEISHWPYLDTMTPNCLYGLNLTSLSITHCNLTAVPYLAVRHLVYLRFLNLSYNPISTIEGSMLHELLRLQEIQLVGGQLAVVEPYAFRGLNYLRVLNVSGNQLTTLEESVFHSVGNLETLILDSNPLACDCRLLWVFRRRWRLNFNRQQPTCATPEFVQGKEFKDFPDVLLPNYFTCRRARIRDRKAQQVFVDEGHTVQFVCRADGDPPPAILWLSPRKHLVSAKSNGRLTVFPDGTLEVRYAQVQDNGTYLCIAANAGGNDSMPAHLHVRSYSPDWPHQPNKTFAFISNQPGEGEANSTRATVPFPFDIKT

[5] = target: T3, human LINGO-1-ΔLRR-Fc (Igleader-hsLINGO-1-ΔLRR-Fc) (human, UniProt Q96FE5 40-556); experiment: as above
T3 construct: Heterologous secretion signal left out; also called human LINGO-1 lacking the LRR domain
T3 sequence: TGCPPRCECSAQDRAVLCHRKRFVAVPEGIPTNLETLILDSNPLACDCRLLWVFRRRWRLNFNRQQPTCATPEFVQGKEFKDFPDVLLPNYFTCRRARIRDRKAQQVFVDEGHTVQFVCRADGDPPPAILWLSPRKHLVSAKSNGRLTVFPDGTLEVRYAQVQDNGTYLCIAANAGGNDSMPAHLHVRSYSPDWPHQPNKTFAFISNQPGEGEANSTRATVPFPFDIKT

[6] = target: T4, human NgR-Fc fusion protein (R&D Systems) (human, UniProt Q9BZR6 27-447, limits assumed); experiment: as above
T4 construct: Commercial protein; also called captured human NgR-Fc; not shown: Fc part of the commercial fusion protein; not described
T4 sequence (looked up): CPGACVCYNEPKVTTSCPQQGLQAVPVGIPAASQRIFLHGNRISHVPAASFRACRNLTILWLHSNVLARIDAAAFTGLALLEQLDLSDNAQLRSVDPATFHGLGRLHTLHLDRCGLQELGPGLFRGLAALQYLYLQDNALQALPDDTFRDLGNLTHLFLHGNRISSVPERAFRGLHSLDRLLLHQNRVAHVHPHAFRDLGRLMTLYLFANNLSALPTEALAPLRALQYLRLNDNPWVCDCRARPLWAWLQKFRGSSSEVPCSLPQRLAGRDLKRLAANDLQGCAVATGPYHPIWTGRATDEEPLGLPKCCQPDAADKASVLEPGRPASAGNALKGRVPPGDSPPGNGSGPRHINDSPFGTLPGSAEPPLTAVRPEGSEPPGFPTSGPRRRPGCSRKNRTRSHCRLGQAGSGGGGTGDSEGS

[7] = target: T3, human LINGO-1-ΔLRR-Fc …; experiment: ELISA, captured Fc fusion protein
[8] = target: T4, human NgR-Fc fusion protein (R&D …); experiment: ELISA, captured Fc fusion protein

B1: anti-LINGO-1 Fab 4785 (Fab, V domains shown)
VH: QVQLQQSGPGLVKPSQTLSLTCAISGDSVSDNSAAWSWIRQSPGRGLEWLGLIYLRSKWDNDYAVSVKSRITINPDTSKNQFSLQLNSVTPEDTAVYYCARTGRADEFDVWGQGTLVTVSS
VL: DIVLTQPPSVSGAPGQRVTISCSGSSSNIGNNYVSWYQQLPGTAPKLLISRNSKRPSGVPDRFSGSKSGTSASLAITGLQSEDEADYYCSTYDTFSIVFGGGTKLTVLG
- relative fluorescence units (RFU) [1]: 6 RFU
- Kd [2]: 260 pM
- Kd [3]: 350 pM
- relative fluorescence units (RFU) [4]: 113 RFU
- relative fluorescence units (RFU) [5]: 8 RFU
- relative fluorescence units (RFU) [6]: 7 RFU
- binding result [7]: no binding
- binding result [8]: no binding
